One substance from US20220389120A1 can be followed below.

The assay deals with PD-1 (UniProt Q15116). Briefly: PD-1 blocking assay.
Sequence of PD-1 (Q15116 25-167): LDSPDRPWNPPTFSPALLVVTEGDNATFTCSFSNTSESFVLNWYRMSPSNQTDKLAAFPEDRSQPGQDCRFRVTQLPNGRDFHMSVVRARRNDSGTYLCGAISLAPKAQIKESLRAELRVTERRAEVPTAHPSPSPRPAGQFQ

As a reminder, the IC50 is the concentration needed to halve the response being measured. Low readings indicate greater potency, high ones weaker potency. Take Keytruda: the IC50 is 0.282 nM.
